Laboratory results from US20050074758A1.

Legend:
[1] = target: prokineticin receptor(s) of guinea pig ileum (ileal membranes; ileal longitudinal smooth muscle) (guinea pig); assay: cell-based or functional assay
[2] = target: prokineticin receptor(s) of guinea pig ileum (ileal membranes; ileal longitudinal smooth muscle) (guinea pig); assay: competition radioligand binding on guinea pig ileal membranes, filtration; displaced tracer 125I-prokineticin 1 (20 pM)
[3] = target: prokineticin receptor expressed endogenously on M2A7 melanoma cells (ATCC CRL-2500); assay: cell-based or functional assay
[4] = target: prokineticin receptor(s) of guinea pig ileum (ileal membranes; ileal longitudinal smooth muscle) (guinea pig); assay: displacement of 125I-prokineticin 1 (20 pM) from guinea pig ileal membranes, high-affinity site
[5] = target: prokineticin receptor(s) of guinea pig ileum (ileal membranes; ileal longitudinal smooth muscle) (guinea pig); assay: displacement of 125I-prokineticin 1 (20 pM) from guinea pig ileal membranes, low-affinity site
[6] = target: prokineticin receptor(s) of guinea pig ileum (ileal membranes; ileal longitudinal smooth muscle) (guinea pig); assay: displacement of 125I-prokineticin 1 (20 pM) from guinea pig ileal membranes, two-site model, low-affinity site
[7] = target: prokineticin receptor(s) of guinea pig ileum (ileal membranes; ileal longitudinal smooth muscle) (guinea pig); assay: displacement of 125I-prokineticin 1 (20 pM) from guinea pig ileal membranes, two-site model, high-affinity site
[8] = target: prokineticin receptor(s) of guinea pig ileum (ileal membranes; ileal longitudinal smooth muscle) (guinea pig); assay: saturation binding of 125I-prokineticin 1 to guinea pig ileal membranes, two-site model, high-affinity site
[9] = target: prokineticin receptor(s) of guinea pig ileum (ileal membranes; ileal longitudinal smooth muscle) (guinea pig); assay: saturation binding of 125I-prokineticin 1 to guinea pig ileal membranes, Scatchard analysis, two-site model, low-affinity site
[10] = target: prokineticin receptor(s) of guinea pig ileum (ileal membranes; ileal longitudinal smooth muscle) (guinea pig); assay: saturation binding of 125I-prokineticin 1 to guinea pig ileal membranes, Scatchard analysis, two-site model, high-affinity site
[11] = target: prokineticin receptor(s) of guinea pig ileum (ileal membranes; ileal longitudinal smooth muscle) (guinea pig); assay: saturation binding of 125I-prokineticin 1 to guinea pig ileal membranes, two-site model, low-affinity site

Row | time constant to midway contraction of ileal strips [1] [min] | IC50 (read off the curve) [2] [nM] | EC50 of calcium mobilization in M2A7 melanoma cells (FLIPR) [3] [nM] | ED50 of contraction of guinea-pig ileum longitudinal muscle [1] [nM] | Binder | further results
1 | 40 | – | – | – | chimeric prokineticin 21 (exons 1 and 2 of prokineticin 2, exon 3 of prokineticin 1) (ligand) AVITGACDKDSQCGGGMCCAVSIWVKSIRICTPMGKLGDSCHPLTRKVPFFRKRKHHTCPCLPNLLCSRFPDGRYRCSMDLKNINF | EC50 of ileal contraction, fold against prokineticin 1 or prokineticin 2 [1]: 8 fold
2 | 15 | 4 | 21 | 0.9 | recombinant refolded human prokineticin 2 (unlabeled), 6×His-tagged (ligand) AVITGACDKDSQCGGGMCCAVSIWVKSIRICTPMGKLGDSCHPLTRKVPFFGRRMHHTCPCLPGLACLRTSFNRFICLAQKHHHHHH | Ki [4]: 0.0042 nM; Ki [5]: 1.22 nM
3 | 15 | 5 | 12 | 0.46 | recombinant refolded human prokineticin 1 (unlabeled), 6×His-tagged (ligand) AVITGACERDVQCGAGTCCAISLWLRGLRMCTPLGREGEECHPGSHKVPFFRKRKHHTCPCLPNLLCSRFPDGRYRCSMDLKNINFHHHHHH | Ki [6]: 1.5 nM; Ki [7]: 0.008 nM
4 | – | – | – | – | 125I-prokineticin 1 (iodinated recombinant human prokineticin 1) (ligand, 125I label by the iodogen method; iodinated residue(s) not stated) AVITGACERDVQCGAGTCCAISLWLRGLRMCTPLGREGEECHPGSHKVPFFRKRKHHTCPCLPNLLCSRFPDGRYRCSMDLKNINFHHHHHH | Bmax (fmol/mg of protein) [8]: 7.8; Kd [9]: 0.227 nM; Kd [10]: 0.005 nM; Bmax (fmol/mg of protein) [11]: 26.4
5 | 40 | – | – | – | chimeric prokineticin 12 (exons 1 and 2 of prokineticin 1, exon 3 of prokineticin 2) (ligand) AVITGACERDVQCGAGTCCAISLWLRGLRMCTPLGREGEECHPGSHKVPFFGRRMHHTCPCLPGLACLRTSFNRFICLAQK | –
